Results as given in paper PMC12412787.

Target: T1, Pyl1p (Yarrowia lipolytica, UniProt Q6CBN1 1-600)
T1 sequence: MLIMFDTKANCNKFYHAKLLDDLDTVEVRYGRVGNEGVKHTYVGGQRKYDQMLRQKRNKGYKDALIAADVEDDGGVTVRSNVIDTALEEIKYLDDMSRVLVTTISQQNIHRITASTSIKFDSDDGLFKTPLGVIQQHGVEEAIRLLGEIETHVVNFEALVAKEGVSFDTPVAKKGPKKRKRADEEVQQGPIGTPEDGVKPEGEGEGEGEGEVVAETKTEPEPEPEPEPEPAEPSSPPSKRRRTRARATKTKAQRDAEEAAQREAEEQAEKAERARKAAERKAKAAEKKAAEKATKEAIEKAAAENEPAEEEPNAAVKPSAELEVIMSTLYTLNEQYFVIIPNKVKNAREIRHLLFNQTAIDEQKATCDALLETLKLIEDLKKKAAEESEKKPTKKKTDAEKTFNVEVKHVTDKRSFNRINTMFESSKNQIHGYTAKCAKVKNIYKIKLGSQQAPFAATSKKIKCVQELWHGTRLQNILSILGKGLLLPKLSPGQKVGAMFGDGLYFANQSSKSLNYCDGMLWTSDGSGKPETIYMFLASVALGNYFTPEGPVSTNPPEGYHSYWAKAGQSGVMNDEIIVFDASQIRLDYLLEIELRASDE
Assay: EMSA

B1: dsTEL probe (YlipTEL_G/YlipTEL_C) (dsDNA)
DNA 1: TTAGTCAGGGTTAGTCAGGG
DNA 2: CCCTGACTAACCCTGACTAA
B1: binds.
